In PMC9270243:

Legend:
[1] = molecular target: Csy complex (P. aeruginosa) (UniProt Q02ML9); experiment: MST
Cas2/3 (P. aeruginosa) = Cas2/3 (P. aeruginosa) (UniProt Q02ML8); experiment: SPR
AcrIF23 (P. aeruginosa) = experiment: MST
AcrIF3 (P. aeruginosa) = experiment: MST
[2] = molecular target: Csy complex (Cas8f, Cas5f, Cas7f, Cas6f, crRNA);Cas2/3 (Pseudomonas aeruginosa;Pseudomonas …, UniProt Q02ML9;Q02MM0;Q02MM1;Q02MM2;Q02ML8 1-434;1-327;1-342;1-187;1-1076, |); experiment: EMSA
[3] = molecular target: T1, Csy complex (Cas8f, Cas5f, Cas7f, Cas6f, crRNA) (Pseudomonas aeruginosa, UniProt Q02ML9;Q02MM0;Q02MM1;Q02MM2 1-434;1-327;1-342;1-187); experiment: EMSA
T1 sequence 1: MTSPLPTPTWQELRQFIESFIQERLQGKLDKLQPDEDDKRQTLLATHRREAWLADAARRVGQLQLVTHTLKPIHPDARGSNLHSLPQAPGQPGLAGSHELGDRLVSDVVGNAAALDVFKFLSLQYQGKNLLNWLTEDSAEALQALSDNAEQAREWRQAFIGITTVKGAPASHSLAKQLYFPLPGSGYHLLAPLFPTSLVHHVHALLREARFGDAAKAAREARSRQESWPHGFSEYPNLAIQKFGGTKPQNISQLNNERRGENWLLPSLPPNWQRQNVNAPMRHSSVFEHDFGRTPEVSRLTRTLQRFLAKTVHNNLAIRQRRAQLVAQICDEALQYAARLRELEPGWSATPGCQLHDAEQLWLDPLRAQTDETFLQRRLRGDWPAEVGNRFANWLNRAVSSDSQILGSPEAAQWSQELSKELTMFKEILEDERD
T1 sequence 2: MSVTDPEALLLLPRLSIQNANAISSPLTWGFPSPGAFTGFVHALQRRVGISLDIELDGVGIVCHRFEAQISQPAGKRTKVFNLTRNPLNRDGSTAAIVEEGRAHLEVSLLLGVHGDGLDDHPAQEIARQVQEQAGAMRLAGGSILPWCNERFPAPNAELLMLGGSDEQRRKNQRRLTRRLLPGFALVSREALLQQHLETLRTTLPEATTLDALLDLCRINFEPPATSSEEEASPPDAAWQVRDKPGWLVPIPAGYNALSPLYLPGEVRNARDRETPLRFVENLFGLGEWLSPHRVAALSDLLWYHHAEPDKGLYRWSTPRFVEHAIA
T1 sequence 3: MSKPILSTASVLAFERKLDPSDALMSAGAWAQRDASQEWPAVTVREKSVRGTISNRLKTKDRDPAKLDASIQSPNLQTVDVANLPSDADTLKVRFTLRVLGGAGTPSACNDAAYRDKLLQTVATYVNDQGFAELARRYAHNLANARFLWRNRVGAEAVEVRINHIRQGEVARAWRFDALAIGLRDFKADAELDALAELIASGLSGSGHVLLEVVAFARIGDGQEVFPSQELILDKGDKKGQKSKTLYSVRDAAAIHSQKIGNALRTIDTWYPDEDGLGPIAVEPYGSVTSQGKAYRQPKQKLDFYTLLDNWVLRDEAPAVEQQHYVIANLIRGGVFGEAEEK
T1 sequence 4: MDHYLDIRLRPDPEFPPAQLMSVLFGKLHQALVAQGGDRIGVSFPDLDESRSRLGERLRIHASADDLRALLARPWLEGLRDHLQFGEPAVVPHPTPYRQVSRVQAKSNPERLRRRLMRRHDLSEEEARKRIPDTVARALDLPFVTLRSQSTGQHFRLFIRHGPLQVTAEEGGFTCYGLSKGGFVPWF

Cas2/3 = molecular target: T2, Cas2/3 (UniProt Q02ML8 1-1076); experiment: EMSA
T2 sequence: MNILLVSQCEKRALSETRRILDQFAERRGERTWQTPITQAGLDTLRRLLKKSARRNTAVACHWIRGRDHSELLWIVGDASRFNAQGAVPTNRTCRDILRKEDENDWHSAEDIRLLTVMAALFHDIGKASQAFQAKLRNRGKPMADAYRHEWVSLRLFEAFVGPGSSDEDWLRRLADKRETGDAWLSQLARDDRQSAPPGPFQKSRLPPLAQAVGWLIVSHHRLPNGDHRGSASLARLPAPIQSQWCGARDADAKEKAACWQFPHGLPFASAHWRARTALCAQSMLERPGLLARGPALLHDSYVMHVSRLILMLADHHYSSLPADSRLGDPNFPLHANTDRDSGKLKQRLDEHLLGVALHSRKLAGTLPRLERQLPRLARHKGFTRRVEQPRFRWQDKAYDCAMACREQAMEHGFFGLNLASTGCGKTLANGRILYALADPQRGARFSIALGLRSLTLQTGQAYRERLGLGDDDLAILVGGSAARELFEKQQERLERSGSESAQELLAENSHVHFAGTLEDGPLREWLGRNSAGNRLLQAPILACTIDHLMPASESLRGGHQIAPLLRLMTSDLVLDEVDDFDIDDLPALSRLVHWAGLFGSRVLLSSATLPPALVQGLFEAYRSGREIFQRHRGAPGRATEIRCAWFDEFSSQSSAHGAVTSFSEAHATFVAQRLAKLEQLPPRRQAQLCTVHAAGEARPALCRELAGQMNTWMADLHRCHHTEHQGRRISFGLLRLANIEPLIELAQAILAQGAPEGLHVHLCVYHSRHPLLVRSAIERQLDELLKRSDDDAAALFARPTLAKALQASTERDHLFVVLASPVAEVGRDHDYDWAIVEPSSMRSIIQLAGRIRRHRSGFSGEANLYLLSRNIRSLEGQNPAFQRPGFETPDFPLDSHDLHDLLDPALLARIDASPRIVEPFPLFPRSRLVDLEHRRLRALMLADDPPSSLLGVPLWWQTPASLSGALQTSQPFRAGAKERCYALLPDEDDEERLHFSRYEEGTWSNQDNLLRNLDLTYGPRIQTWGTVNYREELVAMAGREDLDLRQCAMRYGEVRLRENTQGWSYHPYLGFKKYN

AcrIF1 (natural protein)
Kd [1]: 420 nM

AcrIF23 (natural protein)
Kd (Cas2/3 (P. aeruginosa)): 3360 nM

B1: Cas2/3 (enzyme)
chain: MNILLVSQCEKRALSETRRILDQFAERRGERTWQTPITQAGLDTLRRLLKKSARRNTAVACHWIRGRDHSELLWIVGDASRFNAQGAVPTNRTCRDILRKEDENDWHSAEDIRLLTVMAALFHDIGKASQAFQAKLRNRGKPMADAYRHEWVSLRLFEAFVGPGSSDEDWLRRLADKRETGDAWLSQLARDDRQSAPPGPFQKSRLPPLAQAVGWLIVSHHRLPNGDHRGSASLARLPAPIQSQWCGARDADAKEKAACWQFPHGLPFASAHWRARTALCAQSMLERPGLLARGPALLHDSYVMHVSRLILMLADHHYSSLPADSRLGDPNFPLHANTDRDSGKLKQRLDEHLLGVALHSRKLAGTLPRLERQLPRLARHKGFTRRVEQPRFRWQDKAYDCAMACREQAMEHGFFGLNLASTGCGKTLANGRILYALADPQRGARFSIALGLRSLTLQTGQAYRERLGLGDDDLAILVGGSAARELFEKQQERLERSGSESAQELLAENSHVHFAGTLEDGPLREWLGRNSAGNRLLQAPILACTIDHLMPASESLRGGHQIAPLLRLMTSDLVLDEVDDFDIDDLPALSRLVHWAGLFGSRVLLSSATLPPALVQGLFEAYRSGREIFQRHRGAPGRATEIRCAWFDEFSSQSSAHGAVTSFSEAHATFVAQRLAKLEQLPPRRQAQLCTVHAAGEARPALCRELAGQMNTWMADLHRCHHTEHQGRRISFGLLRLANIEPLIELAQAILAQGAPEGLHVHLCVYHSRHPLLVRSAIERQLDELLKRSDDDAAALFARPTLAKALQASTERDHLFVVLASPVAEVGRDHDYDWAIVEPSSMRSIIQLAGRIRRHRSGFSGEANLYLLSRNIRSLEGQNPAFQRPGFETPDFPLDSHDLHDLLDPALLARIDASPRIVEPFPLFPRSRLVDLEHRRLRALMLADDPPSSLLGVPLWWQTPASLSGALQTSQPFRAGAKERCYALLPDEDDEERLHFSRYEEGTWSNQDNLLRNLDLTYGPRIQTWGTVNYREELVAMAGREDLDLRQCAMRYGEVRLRENTQGWSYHPYLGFKKYN
Kd (AcrIF23 (P. aeruginosa)): 1200 nM | Kd (AcrIF3 (P. aeruginosa)): 31 nM

B2: 54 bp target dsDNA (dsDNA)
DNA 1: GGAAGCCATCCAGGTAGACGCGGACATCAAGCCCGCCGTGAAGGTGCAGCTGCT
DNA 2: AGCAGCTGCACCTTCACGGCGGGCTTGATGTCCGCGTCTACCTGGATGGCTTCC
binding result [2]: binds | binding result [3]: binds

B3: 54 nt ssDNA (ssDNA)
DNA: GGAAGCCATCCAGGTAGACGCGGACATCAAGCCCGCCGTGAAGGTGCAGCTGCT
binding result (Cas2/3): binds
